According to the supplement of paper PMC10567573:

B1: FBXO34 (parent)
chain: PRYREDPCKQCKKKYVKGDVSLCR

Variants of: B1
Assay: protein stability index of a GFP-peptide fusion (GPS, HEK-293T) (PSI 1-6); higher = more stable
Conditions: c terminus: a fixed tail appended
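Also: lentivirally expressed fusions sorted by FACS into six bins by GFP to DsRed ratio, PSI derived from sequencing read proportions per bin multiplied by bin number.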

Protein stability index of substitutions, site by site:
K13: P 1.68, S 2.63, G 2.68, F 2.55, E 2.69, Y 2.16, H 2.35, V 2.59, R 2.6, A 2.51, I 2.05, C 2.23, L 2.94, D 2.63, N 2.66, T 2.58, M 2.47, W 2.65, Q 2.36
V20: D 3.29, F 1.93, C 3.68, P 3.05, H 3.51, R 2.49, Y 2.38, T 2.52, N 2.97, W 2.06, L 2.46, E 2.8, K 3.07, G 2.18, A 2.85, S 3.11, M 2.88, I 2.64, Q 3.31
L22: A 3.12, T 2.93, Y 2.54, E 3.48, H 2.88, K 3.6, D 3.01, C 3.15, S 3.29, W 2.08, Q 2.32, G 3.18, R 3.31, M 2.6, V 3.23, P 2.41, F 2.58, I 3.12, N 3.01
C8: A 4.08, E 4.06, Y 3.33, K 3.88, I 3.57, Q 3.87, M 2.95, D 4.16, L 3.71, N 3.86, R 3.81, H 3.63, F 3.15, V 3.61, T 3.98, G 4.35, P 3.7, W 3.02, S 3.82
Y15: D 3.06, W 2.79, P 2.98, V 2.94, S 3.07, E 3.12, L 3.1, H 4.01, A 2.8, Q 2.9, R 3.31, F 2.73, C 2.73, K 3.49, T 3.13, M 3.11, N 2.99, G 3.47, I 2.95
Q10: N 2.64, V 3.28, L 2.04, G 3.31, M 2.09, D 2.83, H 2.39, T 2.78, W 2.69, C 2.13, F 1.77, A 2.79, P 3.13, K 2.81, I 2.13, Y 2.72, R 2.75, S 3.13, E 2.87
C11: H 3.68, S 4.07, F 2.12, T 3.57, I 3.01, N 4.14, A 3.23, E 3.91, D 4.4, M 3.01, K 4.09, Q 3.75, W 2.12, R 3.77, V 3.11, G 3.91, P 3.99, L 3.31, Y 2.76
P7: D 2.85, K 2.51, G 2.7, V 2.19, T 2.18, F 2.22, C 2.26, I 2.38, M 2.42, H 2.23, Y 2.44, Q 2.23, S 2.69, N 2.94, W 3.07, E 2.76, L 1.85, R 2.31, A 2.8
D6: S 2.5, C 2.61, I 2.21, Q 3.71, T 2.61, R 3.19, V 2.58, N 1.92, E 3.14, G 2.48, L 2.15, W 1.98, M 2.92, K 3.06, H 2.61, F 2.35, Y 2.3, P 2.22
K14: H 2.29, G 2.48, R 2.88, C 1.84, L 2, Y 2.12, P 2.85, E 2.69, M 2.31, F 2.5, S 2.45, A 2.17, W 2.22, D 2.24, V 2.2, I 2.19, T 2.92, N 2.54, Q 2.59
K9: W 2.26, M 2.45, V 2.82, Y 2.6, C 2.35, I 2.16, T 2.66, F 2.14, A 2.53, E 3.33, N 2.46, S 2.51, Q 2.72, G 2.59, L 2.42, P 2.28, D 2.54, H 2.29, R 2.53
K12: S 2.54, R 3.54, G 2.5, H 2.76, A 2.52, T 2.57, M 2.18, Y 2.46, F 1.79, Q 2.57, I 2.33, W 2.37, E 2.86, C 1.58, P 3.25, D 2.57, L 2.28, N 2.39, V 2.31
D19: T 2.97, V 2.07, H 2.88, K 3.14, Y 2.56, E 3.31, F 2.23, L 2.43, R 3.41, Q 2.71, N 3.52, I 3.18, C 3.07, G 2.63, W 2.56, A 3.15, P 2.66, M 2.84, S 2.38
C23: G 2.88, N 2.53, I 2.59, F 2.27, A 2.95, K 3.29, L 3.1, M 2.95, P 2.52, H 3.1, E 2.71, D 3.3
K17: N 2.77, D 2.52, A 2.89, E 2.53, C 2.52, R 2.59, L 1.96, S 2.19, F 2.04, Y 2.29, V 2.69, H 3.2, G 2.61, I 2.21, Q 2.23, T 2.67, M 2.39, P 2.83, W 2.72
V16: I 2.5, G 2.55, C 3.63, K 2.75, Y 2.65, N 2.52, R 3.4, W 2.31, F 2.22, D 2.73, L 2.98, Q 2.63, S 2.93, H 2.77, A 3.11, T 2.74, M 2.19, E 2.81, P 3.48
S21: N 2.64, Q 3.14, V 3.13, Y 2.18, E 2.83, G 2.54, F 2.67, H 3.53, L 2.22, C 4.63, T 2.66, R 2.97, W 2.16, M 2.51, P 2.53, D 2.92, I 2.34, K 2.87, A 3.03
G18: V 2.46, H 3.23, M 2.18, Y 2.35, Q 3.2, W 2.3, F 2.16, L 2.25, I 2.35, A 2.54, N 2.92, P 3.13, K 2.69, R 3.31, T 2.5, C 2.94, S 2.92, E 3.17, D 2.86
